Test results as given in US20170121395A1 (SINGH BIOTECHNOLOGY, published 2017).
Where two headings read alike, the source gives them in different places.

Assays:
[1] = target: T1, recombinant HIV-1 reverse transcriptase protein (HIV-1, UniProt P03367 600-858)
T1 construct: also called rHIV-1; HIV-1 RT

[2] = target: T1, recombinant HIV-1 reverse transcriptase …; assay: SPR (Biacore 3000), sdAb immobilized (1200 RU), full kinetics, analyte 0-200 nM
[3] = target: T1, recombinant HIV-1 reverse transcriptase …; remark: listed apart in the source
[4] = target: T1, recombinant HIV-1 reverse transcriptase …; assay: SPR (Biacore 3000), sdAb immobilized, analyte 100 nM
[5] = target: T1, recombinant HIV-1 reverse transcriptase …; remark: listed apart in the source
[6] = target: T1, recombinant HIV-1 reverse transcriptase …; remark: listed apart in the source
[7] = target: T1, recombinant HIV-1 reverse transcriptase …; assay: ELISA, plate coated with HIV-1 RT, sdAb at 1 µg/mL, checkerboard of coating, 2° antibody and HRP
[8] = target: T1, recombinant HIV-1 reverse transcriptase …; remark: listed apart in the source
[9] = target: T1, recombinant HIV-1 reverse transcriptase …; remark: listed apart in the source

B1: HIV1-9 anti-HIV-1 RT sdAb (VHH)
VHH: EVQLVESGGGSVQAGGSLRLSCAASVYSYNTNCMGWFRQAPGKEREGVAVIYAAGGLTYYADSVKGRFTISQENGKNTVYLTMNRLKPEDTAMYYCAAKRWCSSWNRGEEYNYWGQGTQVTVSS
notes: also called HIV1-9 VHH; HIV1-9 anti-RT sdAb
[1]
  EC50: 0.019 µg/mL
[2]
  Kd: 3.85 nM
  koff: 0.000731 s⁻¹
  kon: 190000 M⁻¹ s⁻¹
[3]
  EC50: 0.0191 µg/mL
[4]
  Kd: 4.25 nM
  koff: 0.000379 s⁻¹
  kon: 89100 M⁻¹ s⁻¹
[5]
  EC50: 0.0133 µg/mL
[6]
  EC50: 0.015 µg/mL
[7]
  signal-to-noise ratio: > 20
[8]
  EC50: 0.0227 µg/mL
[9]
  EC50: 0.0161 µg/mL
